Results from patent US20210386836.

Legend:
[1] = biological target: T1, C-Reactive protein, P02741
T1 chain: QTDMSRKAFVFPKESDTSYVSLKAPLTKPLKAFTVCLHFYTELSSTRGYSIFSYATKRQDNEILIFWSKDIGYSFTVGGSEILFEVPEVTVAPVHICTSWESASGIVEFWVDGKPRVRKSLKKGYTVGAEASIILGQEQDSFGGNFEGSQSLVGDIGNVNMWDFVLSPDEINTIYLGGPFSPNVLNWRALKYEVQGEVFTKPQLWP

[2] = biological target: IL-1β
[3] = biological target: C4
[4] = biological target: T2, C4-Binding protein, P04003
T2 chain 1: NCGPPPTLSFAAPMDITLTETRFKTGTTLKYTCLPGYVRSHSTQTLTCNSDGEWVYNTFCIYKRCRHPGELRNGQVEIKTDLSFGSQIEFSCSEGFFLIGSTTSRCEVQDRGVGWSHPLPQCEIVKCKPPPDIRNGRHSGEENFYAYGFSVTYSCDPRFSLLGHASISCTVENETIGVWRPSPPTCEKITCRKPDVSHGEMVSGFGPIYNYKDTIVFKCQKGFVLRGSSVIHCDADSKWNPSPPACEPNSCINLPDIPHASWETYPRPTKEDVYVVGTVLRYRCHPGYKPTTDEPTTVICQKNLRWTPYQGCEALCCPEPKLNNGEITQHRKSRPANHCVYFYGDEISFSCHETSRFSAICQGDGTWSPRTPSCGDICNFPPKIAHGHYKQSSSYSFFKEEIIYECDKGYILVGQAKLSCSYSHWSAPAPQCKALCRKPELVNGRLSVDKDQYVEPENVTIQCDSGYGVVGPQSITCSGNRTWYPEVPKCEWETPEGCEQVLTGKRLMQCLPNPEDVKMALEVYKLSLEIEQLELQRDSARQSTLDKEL
T2 chain 2: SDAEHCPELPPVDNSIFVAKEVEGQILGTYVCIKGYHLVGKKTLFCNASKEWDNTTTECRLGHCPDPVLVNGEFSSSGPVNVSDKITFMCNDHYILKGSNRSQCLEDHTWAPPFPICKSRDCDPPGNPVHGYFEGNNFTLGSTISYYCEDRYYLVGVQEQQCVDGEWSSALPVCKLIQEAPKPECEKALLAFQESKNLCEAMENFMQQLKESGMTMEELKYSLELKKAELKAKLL

[5] = biological target: T3, C2a, P06681
T3 chain: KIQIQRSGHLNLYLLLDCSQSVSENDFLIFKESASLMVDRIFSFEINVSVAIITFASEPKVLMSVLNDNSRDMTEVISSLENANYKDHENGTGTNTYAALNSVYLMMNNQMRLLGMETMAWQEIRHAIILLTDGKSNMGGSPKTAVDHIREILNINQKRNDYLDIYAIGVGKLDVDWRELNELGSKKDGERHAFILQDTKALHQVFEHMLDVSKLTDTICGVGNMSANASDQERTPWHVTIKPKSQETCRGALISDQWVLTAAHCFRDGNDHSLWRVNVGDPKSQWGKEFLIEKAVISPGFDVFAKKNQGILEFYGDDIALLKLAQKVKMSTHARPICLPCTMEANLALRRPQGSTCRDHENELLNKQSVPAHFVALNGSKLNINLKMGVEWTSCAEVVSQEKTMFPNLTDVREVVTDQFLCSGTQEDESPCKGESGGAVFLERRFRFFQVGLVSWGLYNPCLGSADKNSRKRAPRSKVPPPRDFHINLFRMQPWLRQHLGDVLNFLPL

[6] = biological target: IL-3
[7] = biological target: IP-10
[8] = biological target: C3, P01024
[9] = biological target: C5, P01031
[10] = biological target: IL-17
[11] = biological target: T4, Factor H, P08603
T4 chain: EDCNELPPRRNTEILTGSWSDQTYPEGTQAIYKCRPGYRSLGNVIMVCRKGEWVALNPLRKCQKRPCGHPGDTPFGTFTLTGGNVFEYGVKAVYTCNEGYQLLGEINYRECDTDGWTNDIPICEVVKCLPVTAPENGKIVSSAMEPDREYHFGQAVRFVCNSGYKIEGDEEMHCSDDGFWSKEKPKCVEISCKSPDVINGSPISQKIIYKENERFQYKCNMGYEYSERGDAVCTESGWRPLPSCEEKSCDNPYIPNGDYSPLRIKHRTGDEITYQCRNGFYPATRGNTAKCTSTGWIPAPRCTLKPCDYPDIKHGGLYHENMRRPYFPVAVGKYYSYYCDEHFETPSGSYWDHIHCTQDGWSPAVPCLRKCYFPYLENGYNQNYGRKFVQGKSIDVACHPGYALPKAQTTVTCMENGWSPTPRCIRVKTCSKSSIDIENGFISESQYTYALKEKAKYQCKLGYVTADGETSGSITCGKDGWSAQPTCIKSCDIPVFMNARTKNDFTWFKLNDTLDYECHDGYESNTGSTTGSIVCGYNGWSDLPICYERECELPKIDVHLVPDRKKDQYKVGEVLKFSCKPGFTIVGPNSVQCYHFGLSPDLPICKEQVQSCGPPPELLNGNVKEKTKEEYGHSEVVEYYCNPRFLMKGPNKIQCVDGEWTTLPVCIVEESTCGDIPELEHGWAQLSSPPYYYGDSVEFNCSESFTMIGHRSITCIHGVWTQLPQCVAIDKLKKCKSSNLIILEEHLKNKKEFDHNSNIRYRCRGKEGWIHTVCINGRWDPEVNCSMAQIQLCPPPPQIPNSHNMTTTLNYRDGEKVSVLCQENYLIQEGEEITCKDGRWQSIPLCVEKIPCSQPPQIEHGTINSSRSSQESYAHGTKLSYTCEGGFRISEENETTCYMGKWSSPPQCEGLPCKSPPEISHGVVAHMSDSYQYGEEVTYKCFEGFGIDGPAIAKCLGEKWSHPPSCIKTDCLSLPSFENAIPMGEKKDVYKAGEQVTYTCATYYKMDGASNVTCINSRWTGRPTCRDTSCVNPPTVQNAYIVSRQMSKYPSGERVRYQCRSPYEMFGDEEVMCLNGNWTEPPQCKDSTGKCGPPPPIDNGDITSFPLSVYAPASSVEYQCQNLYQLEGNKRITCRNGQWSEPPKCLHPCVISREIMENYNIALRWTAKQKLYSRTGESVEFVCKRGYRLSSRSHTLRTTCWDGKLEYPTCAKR

B1: PrtI(ProB) (protein)
chain: AIGETSVQNVKVSVAKNESDSQKFNNSQNLEQKTPQAAAANQNGSQVQNDHTETQLQNQQTTQSQVTQAHTEENNASSIPEPANQADHVKGNVQSAWDQGYKGQNTVVAVIDSGADTSHKDFQTMPSNPKLKQEDVQSKIDQQGYGKYVNEKFPYVYNYADRDNDYIKSDDNNQXNDSPHGQHVSGIIAADGHPEGDQQYVVGVAPEAQLMQLRVFGQFSDEKTDDVARAIYDATNLGADVIQMSLGQGVADQQLTNIEQKAVQYAIDHGVFVSISASNNGNSASVDNPSKVTAKGYGSGSEAGNYEPLNSGTVANPGASKNALTVAAETSGTGKDSDMASFSSWGPLSDFSLKPDLSAPGYQVVSTVNDNQYQTMSGTSMAGPFAAGSAALVIQRLKQTNPELKGAELVAATKALLMNSAKVQTQNGYTTPVSPRRQGAGQIDVGAATANPVYVTAADGTSSLSLRQVDEKTTFTLTFHNLTDQEQSYSFNDLGGGYTEQRDPDSGVFHEVQLAGAHVNGVGNFTLAPKEVKDLQYTLDLQGLNKNQPVEGWLHFTNDKDKSTVVVPYLAYYGDLTSENVFDQNANEEKPDIQGNRFVNENNYPLGVTDQESLKQLVNVDSDYNWQEVAKLYESGKVAFSPNDDHQSDLIKPYAYLKQNVKDLKVEILDAKGNVVRVVSDVQGVDKSYDESGVTKDASLSVSMRDNPDAFEWDGKVYDTKTGQMVTAPDGQYTYRFVATLWNEGPNQKQTADFPVVVDTQAPSLSVKYDSATHTLSGNYEDKGAGFTDYSYVTVQVNDKVFGYKLNEGESGFDNSEKTKGHFNFTLSSDALDALSGSLNKVSVTLSDVANNTTVKTVDVPAVKDQPAVSVWNATEGVEFNKNSKDYNKENDTYTLYGSAAQDFYLNGALVQVRDGKYEVPVKTTTQDLVFSTDQAGKNVLKSFTTFTPKAFFNWQNVDGFDGNFGVNIYSVKTNDPNNAVVQAAVPLGKNVKAYAQDYFTGEVYKGQVENGVATFHVHTSINQGEDGIFKRALLTGWSEVDGPAYNDKQVTSKAGVASSNHLGVYYTTDKVNRKVYTDRADLGVDVQDEAADLSSFGPTAYPGHALADLTTRTDPNPAIHFDYLNDNDTTRFGQNAVTDGYYDSVTKKFTVTGHVDPEVKSLTVLGDSSDENAPQNQVKLGKDGKFSFSFTTENVGQRPVAYIYTDQNGQKVRGTLNVVLDTVAPTLNVDQVNGNELEVKTNNPLFKLSGVVNDNLDGYRLYVNGNNIYREFLNSGYNKLAGLNTDGTDVNPYGPHNFEESFNLNDDNNQPTTHVFTIYVVDQVGNKVEKKIAVNYDPDYVA
modifications: not fully specified; X: residue not identified in the source
proteolytic activity (SDS-PAGE) [1]: None of the complement proteins tested show evidence of breakdown
protein cleavage assay (SDS-PAGE) [2]: has activities against
proteolytic activity (SDS-PAGE) [3]: None of the complement proteins tested show evidence of breakdown
proteolytic activity (SDS-PAGE) [4]: None of the complement proteins tested show evidence of breakdown
proteolytic activity (SDS-PAGE) [5]: None of the complement proteins tested show evidence of breakdown
protein cleavage assay (SDS-PAGE) [6]: has activities against
protein cleavage assay (SDS-PAGE) [7]: has activities against
proteolytic activity (SDS-PAGE) [8]: None of the complement proteins tested show evidence of breakdown
proteolytic activity (SDS-PAGE) [9]: None of the complement proteins tested show evidence of breakdown
protein cleavage assay (SDS-PAGE) [10]: has activities against
proteolytic activity (SDS-PAGE) [11]: None of the complement proteins tested show evidence of breakdown
